# Measurements as given in PMC8568656.
# Target: DOPAL-derived αS oligomers (αS incubated with 3,4-dihydroxyphenylacetaldehyde)
# Test: SDS-PAGE of SEC fractions
substance,measurement,value
"DOPAL-derived αS oligomers (αS incubated with 3,4-dihydroxyphenylacetaldehyde)",stoichiometry N,2
